# Earlier results as cited in patent US20150290107A1, “COMPOSITIONS FOR TREATMENT OF XEROSTOMIA AND FOR TOOTH TREATMENT” (3 IN 1 DENTAL PLLC, priority 2013, published 2015).
# Tested on: lean meat
# Details: usual grade
molecule,measurement,value
"Papain (protein, UniProt P00784 134-345, looked up, Protease enzyme; white or grayish-white, slightly hygroscopic powder) Papain: IPEYVDWRQKGAVTPVKNQGSCGSCWAFSAVVTIEGIIKIRTGNLNEYSEQELLDCDRRSYGCNGGYPWSALQLVAQYGIHYRNTYPYEGVQRYCRSREKGPYAAKTDGVRQVQPYNEGALLYSIANQPVSVVLEAAGKDFQLYRGGIFVGPCGNKVDHAVAAVGYGPNYILIKNSWGTGWGENGYIRIKRGTGNSYGVCGLYTSSFYPVKN",potency: digesting times its weight of lean meat,~35 times its weight
